Assay results: paper PMC4314829, “Unraveling the kinetic diversity of microbial 3-dehydroquinate dehydratases of shikimate pathway” (AMB Express, 2015)

Legend:
Details in all cases: DHQ 0.08 to 1.0 mmol/L; assay buffer, pH and temperature not given
[1] = test system: O=C1C[C@@](O)(C(=O)O)C[C@@H](O)[C@@H]1O; assay: purified protein
[2] = substrate: O=C1C[C@@](O)(C(=O)O)C[C@@H](O)[C@@H]1O; assay: OD234 microplate assay, Lineweaver-Burk; assay type: biochemical, Natranaerobius thermophilus
Excerpt: OD234 microplate assay, Lineweaver-Burk on DHQase 3026

[3] = substrate: O=C1C[C@@](O)(C(=O)O)C[C@@H](O)[C@@H]1O; assay: OD234 microplate assay, Lineweaver-Burk; assay type: biochemical, Halanaerobium hydrogeniformans
Excerpt: OD234 microplate assay, Lineweaver-Burk on DHQase 3024

[4] = substrate: O=C1C[C@@](O)(C(=O)O)C[C@@H](O)[C@@H]1O; assay: OD234 microplate assay, Lineweaver-Burk; assay type: biochemical, Parageobacillus thermoglucosidasius
Excerpt: OD234 microplate assay, Lineweaver-Burk on DHQase 3021

[5] = substrate: O=C1C[C@@](O)(C(=O)O)C[C@@H](O)[C@@H]1O; assay: OD234 microplate assay, Lineweaver-Burk; assay type: biochemical, Thermodesulfobium narugense
Excerpt: OD234 microplate assay, Lineweaver-Burk on DHQase 3028

[6] = substrate: O=C1C[C@@](O)(C(=O)O)C[C@@H](O)[C@@H]1O; assay: OD234 microplate assay, Lineweaver-Burk; assay type: biochemical, Streptomyces acidiscabies
Excerpt: OD234 microplate assay, Lineweaver-Burk on DHQase 3016

[7] = substrate: O=C1C[C@@](O)(C(=O)O)C[C@@H](O)[C@@H]1O; assay: OD234 microplate assay, Lineweaver-Burk; assay type: biochemical, Ruminococcus champanellensis
Excerpt: OD234 microplate assay, Lineweaver-Burk on DHQase 3027

[8] = substrate: O=C1C[C@@](O)(C(=O)O)C[C@@H](O)[C@@H]1O; assay: OD234 microplate assay, Lineweaver-Burk; assay type: biochemical, Metallosphaera cuprina
Excerpt: OD234 microplate assay, Lineweaver-Burk on DHQase 3030

[9] = substrate: O=C1C[C@@](O)(C(=O)O)C[C@@H](O)[C@@H]1O; assay: OD234 microplate assay, Lineweaver-Burk; assay type: biochemical, Psychromonas ingrahamii
Excerpt: OD234 microplate assay, Lineweaver-Burk on DHQase 3010

[10] = substrate: O=C1C[C@@](O)(C(=O)O)C[C@@H](O)[C@@H]1O; assay: OD234 microplate assay, Lineweaver-Burk; assay type: biochemical, Alcanivorax borkumensis
Excerpt: OD234 microplate assay, Lineweaver-Burk on DHQase 3003

[11] = substrate: O=C1C[C@@](O)(C(=O)O)C[C@@H](O)[C@@H]1O; assay: OD234 microplate assay, Lineweaver-Burk; assay type: biochemical, Crystallibacter crystallopoietes
Excerpt: OD234 microplate assay, Lineweaver-Burk on DHQase 3012

[12] = substrate: O=C1C[C@@](O)(C(=O)O)C[C@@H](O)[C@@H]1O; assay: OD234 microplate assay, Lineweaver-Burk; assay type: biochemical, Acetivibrio clariflavus
Excerpt: OD234 microplate assay, Lineweaver-Burk on DHQase 3025

[13] = substrate: O=C1C[C@@](O)(C(=O)O)C[C@@H](O)[C@@H]1O; assay: OD234 microplate assay, Lineweaver-Burk; assay type: biochemical, Nocardia brasiliensis
Excerpt: OD234 microplate assay, Lineweaver-Burk on DHQase 3014

[14] = substrate: O=C1C[C@@](O)(C(=O)O)C[C@@H](O)[C@@H]1O; assay: OD234 microplate assay, Lineweaver-Burk; assay type: biochemical, Gluconobacter oxydans
Excerpt: OD234 microplate assay, Lineweaver-Burk on DHQase 3007

[15] = substrate: O=C1C[C@@](O)(C(=O)O)C[C@@H](O)[C@@H]1O; assay: OD234 microplate assay, Lineweaver-Burk; assay type: biochemical, Paramagnetospirillum magneticum
Excerpt: OD234 microplate assay, Lineweaver-Burk on DHQase 3037

With DHQase 3009 (Psychrobacter sp. PRwf-1) the Km [1] was 203.24 µmol/L, the Vmax [1] was 254 µM/min and the kcat [1] was 31.7 s⁻¹. For the same molecule, the kcat/Km [1] was 160000 M⁻¹ s⁻¹.

B1: DHQase 3026 (Natranaerobius thermophilus JW/NM-WN-LF) (protein)
chain: MKIYVIHGPNINMLGNRESEHYGTQTLEELNSSIIKESESLGIEVEIFQFNSEGDIITKLQEANNYAQGVIINPGAYTHYSIAIRDAIAAISKPVIEVHISNIFNRESFRSHSVIAPVAKGQISGMGFAGYLLALNAFIKTKEG
notes: full length, codon-optimised synthetic gene, pET28a His tag, E. coli BL21(DE3), Ni-NTA
B1 was tested, and the Km [2] was 304.54 µmol/L, the Vmax [2] was 177 µM/min and the kcat [2] was 3.8 s⁻¹. For the same molecule, the kcat/Km [2] was 10000 M⁻¹ s⁻¹.

B2: DHQase 3024 (Halanaerobium hydrogeniformans) (protein)
chain: MQKVAVIHGPNLNMLGLREPEIYGKNNLEMVNKNLKRKAKELDFEIEIMQSNHEGEIVDYLHQNFEQLDGVIINPGGLTHTSVILRDALAAVRLPVIEVHISNIHKREEFRHKSLTAAVAVGQITGLGVKGYTLALEGLKSILGREKY
notes: as for B1
For B2, the Km [3] was 526.07 µmol/L, the Vmax [3] was 374 µM/min and the kcat [3] was 75.1 s⁻¹. It also gave a kcat/Km [3] of 140000 M⁻¹ s⁻¹.

B3: DHQase 3021 (Parageobacillus thermoglucosidasius) (protein)
chain: MAHLLLINGPNLNLLGKREPHIYGSTTLDSLEQELISFANEHGAALTCFQSNHEGAIIDRIHEAEGKYDGIILNAGAFTHYSYAIRDAIASISIPVVEVHISNIHAREPFRHQSVIAPVVAGQIVGFGLAGYRLAILALLEIKGRGDK
notes: as for B1
B3 gave a Km [4] of 133.97 µmol/L, a Vmax [4] of 130 µM/min and a kcat [4] of 5.33 s⁻¹. The kcat/Km [4] was 40000 M⁻¹ s⁻¹.

B4: DHQase 3028 (Thermodesulfobium narugense DSM 14796) (protein)
chain: MKKILVINGPNLNMLGTREPNIYGSITLHGLEELILNFAKELEMKVDFFQSNHEGDIIDKIHRTFDAYDAFIINPGAFTHYSYAIRDAIASITIPVIEVHLSNVHAREEFRKSSVIAPVCLGQISGLGELSYIAAIVALDKYLQKLEKRA
notes: as for B1
Molecule B4 has a Km [5] of 180.72 µmol/L, a Vmax [5] of 69.6 µM/min and a kcat [5] of 6.88 s⁻¹. For the same molecule, the kcat/Km [5] was 40000 M⁻¹ s⁻¹.

B5: DHQase 3016 (Streptomyces acidiscabies) (protein)
chain: MPRTLANAPIMILNGPNLNLLGQRQPEIYGSDTLADVEALCVKAAATHGGTVDFRQSNHEGELVDWIHEARMDHCGIVINPGAYSHTSVAILDALNTCDGLPVIEVHISNIHKREAFRHHSYVSLRADGVIAGCGVQGYVFGVERVAALAGEGTARA
notes: as for B1
For B5, the Km [6] was 141.53 µmol/L, the Vmax [6] was 745 µM/min and the kcat [6] was 212 s⁻¹. For the same molecule, the kcat/Km [6] was 1.5e+06 M⁻¹ s⁻¹.

B6: DHQase 3027 (Ruminococcus champanellensis 18P13 = JCM 17042) (protein)
chain: MRILVIHGPNLNLLGEREPGIYGKNDLAHVNGAILTRAKELGVECEVFQSNHEGEILVRLHEARHAFDGVVLNAGAYTHYSYAIRDAIAAIRIPCVEVHISNVHAREEFRHTSVIAPACLGVVCGFGGDSYLLALEGLVRHCAGQKTL
notes: as for B1
For B6, the Km [7] was 255.54 µmol/L, the Vmax [7] was 360 µM/min and the kcat [7] was 50.2 s⁻¹. It also gave a kcat/Km [7] of 200000 M⁻¹ s⁻¹.

B7: DHQase 3030 (Metallosphaera cuprina Ar-4) (protein)
chain: MFSLMKPEIVVSLPVTRPDDLNKVNKIDGLVELRLDYSTELPNPEELIPFKHKVLVTLRDKEEGGRIKYDVDFKAKYLERLNELGILYDVEASFLERRKIEYVGKIVSAHYFSSLPSTEEIDQLFRKYEGAYTIKVAVASLPGYRELLSYVSGKPNATFMPMSNDPIERLAFSLLGSKLLYTYLESPTAQGQLSYTQAKQILECIFK
notes: as for B1
B7 showed a Km [8] of 92.76 µmol/L, a Vmax [8] of 68.4 µM/min and a kcat [8] of 3.86 s⁻¹. For the same molecule, the kcat/Km [8] was 40000 M⁻¹ s⁻¹.

B8: DHQase 3010 (Psychromonas ingrahamii 37) (protein)
chain: MTQQIKLLVLNGPNLNLLGQREPEVYGSKTLDDIIKALTDEAALQNVALSHLQSNREYELIEKIHDAFEKIDFIIINPAAFTHTSVALRDALLGVNIPFIEVHLSNVHARESFRHHSYLSDIAQGVICGLGAKGYSFALQSAIGKLRNI
notes: as for B1
B8 gave a Km [9] of 202.55 µmol/L, a Vmax [9] of 48 µM/min and a kcat [9] of 10.6 s⁻¹. For the same molecule, the kcat/Km [9] was 50000 M⁻¹ s⁻¹.

B9: DHQase 3003 (Alcanivorax borkumensis SK2) (protein)
chain: MITANNDKFARGPILASILVLHGPNLNLLGTREPDKYGHTTLADINQQLQEQASKAGHHLQHLQSNAEYELVECIHDAHTEGVDFIIINPAAFTHTSVALRDALLAVNIPFIEVHLSNVHARETFRHHSFFSDIAKGVICGLGAIGYALALTAALEQLDD
notes: as for B1
In the case of B9, the Km [10] is reported as 210.71 µmol/L, the Vmax [10] is reported as 80.4 µM/min and the kcat [10] is reported as 13.5 s⁻¹. For the same molecule, the kcat/Km [10] was 60000 M⁻¹ s⁻¹.

B10: DHQase 3012 (Arthrobacter crystallopoietes BAB-32) (protein)
chain: MGNMSEHSTGSSTRKLLVLNGPNLNLLGTREPQIYGSDTLEDAETLAARAAEAHGLAVECLQSNHEGVLIDAIHAARGTAAGIVINPGGYTHTSVALRDALSGVDLPVVEVHISNIHRREEFRHHSYISGIAVAVIAGAGISGYKFAVDLLASRL
notes: as for B1
Work on B10 yielded a Km [11] of 448.50 µmol/L, a Vmax [11] of 4000 µM/min and a kcat [11] of 185 s⁻¹. The kcat/Km [11] was 410000 M⁻¹ s⁻¹.

B11: DHQase 3025 (Acetivibrio clariflavus DSM 19732) (protein)
chain: MKKILIINGPNLNLLGTREKEVYGTETLDDIAKKVAEEAAKLNVNIEFFQSNHEGDIIDKIHAARGNTDAIIINPGAYTHYSIAIRDAIKAVEIPTIEIHLSNIHAREEFRSHSVIAPVCVGQICGFGSNSYILGLNAAALL
notes: as for B1
In the case of B11, the Km [12] is reported as 368.46 µmol/L, the Vmax [12] is reported as 353 µM/min and the kcat [12] is reported as 59.6 s⁻¹. For the same molecule, the kcat/Km [12] was 160000 M⁻¹ s⁻¹.

B12: DHQase 3014 (Nocardia brasiliensis ATCC 700358) (protein)
chain: MSAPGPILVLNGPNLNMLGTRQPEVYGSATLDDVVELCRQTAERYGREIAAFQSNSEGALIDRIHRARGVESAIVINPGGLTHTSVALRDALVIPEVPIVEVHISNVHAREEFRHHSYISPIATAVVAGMGIQGYAAAIEFLVRSA
notes: as for B1
Work on B12 yielded a Km [13] of 151.51 µmol/L, a Vmax [13] of 216 µM/min and a kcat [13] of 3.83 s⁻¹. The kcat/Km [13] was 30000 M⁻¹ s⁻¹.

B13: DHQase 3007 (Gluconobacter oxydans 621H) (protein)
chain: MTAPKVLSRGQMKRPLITVLNGPNLNMLGLRQPGIYGHATLDDVEQVCIQAAERLDVAIDFRQTNGEGELVSWVQECRGRADGIVINPAAYGHTSIALLDALLAVELPVIEVHISNIHRREPFRHHTYVSQAAIGVICGLGVRGYAHALQAITDMIEDEG
notes: as for B1
Work on B13 yielded a Km [14] of 777.75 µmol/L, a Vmax [14] of 146 µM/min and a kcat [14] of 77.1 s⁻¹. For the same molecule, the kcat/Km [14] was 100000 M⁻¹ s⁻¹.

B14: DHQase 3037 (Paramagnetospirillum magneticum AMB-1) (protein)
chain: MLGTRQPELYGTETLADIEAACRTHADSLGLTVEFSQTNMEGELVTSIQKCRGRAVGIIINAGAYTHTSVAILDALLAAEVPAIEVHLSNIHQRDSFRHHSYVAKAAKGMICGLGSHGYILALDALARLIKGNAEA
notes: as for B1
Work on B14 yielded a Km [15] of 119.97 µmol/L, a Vmax [15] of 232 µM/min and a kcat [15] of 73.2 s⁻¹. The kcat/Km [15] was 610000 M⁻¹ s⁻¹.
